Assay [1] deals with T1, human SLITRK6 on cells (human, UniProt Q9H5Y7 27-841).
T1 construct: whole, on cells
Nature of the assay: flow cytometry on RT4 cells, PE-conjugated anti-human Fc.
Procedure: (§1) The binding activity of mAbs and ADCs was evaluated by flow cytometer (Beckman, Cytoflex). Specifically, cells were incubated with 50 μL of mAbs or ADCs in series dilutions in PBS containing 1% BSA at 4° C. for 30 min. The cells were washed twice with PBS containing 1% BSA, stained with PE-conjugated anti human Fc in PBS containing 1% BSA and then incubated at 4° C. for 20 min. After that the cells were washed twice with PBS and analyzed by a flow cytometer.

Assay [2] addresses T2, cynomolgus monkey SLITRK6 extracellular domain linked to his tag (cynomolgus monkey, UniProt G7PVK4 27-608).
T2 construct: extracellular domain; also called cynoSLITRK6; Cyno SLITRK6; not shown: his tag
Nature of the assay: BLI; antigen-his on anti-his tips, antibody or ADC as analyte; 1:1 fit.

For assay [3], the target named is T3, mouse SLITRK6 (mouse, UniProt Q8C110 23-609).
T3 construct: extracellular domain; also called Mu SLITRK6; not shown: his tag
T3 sequence (Q8C110 23-609): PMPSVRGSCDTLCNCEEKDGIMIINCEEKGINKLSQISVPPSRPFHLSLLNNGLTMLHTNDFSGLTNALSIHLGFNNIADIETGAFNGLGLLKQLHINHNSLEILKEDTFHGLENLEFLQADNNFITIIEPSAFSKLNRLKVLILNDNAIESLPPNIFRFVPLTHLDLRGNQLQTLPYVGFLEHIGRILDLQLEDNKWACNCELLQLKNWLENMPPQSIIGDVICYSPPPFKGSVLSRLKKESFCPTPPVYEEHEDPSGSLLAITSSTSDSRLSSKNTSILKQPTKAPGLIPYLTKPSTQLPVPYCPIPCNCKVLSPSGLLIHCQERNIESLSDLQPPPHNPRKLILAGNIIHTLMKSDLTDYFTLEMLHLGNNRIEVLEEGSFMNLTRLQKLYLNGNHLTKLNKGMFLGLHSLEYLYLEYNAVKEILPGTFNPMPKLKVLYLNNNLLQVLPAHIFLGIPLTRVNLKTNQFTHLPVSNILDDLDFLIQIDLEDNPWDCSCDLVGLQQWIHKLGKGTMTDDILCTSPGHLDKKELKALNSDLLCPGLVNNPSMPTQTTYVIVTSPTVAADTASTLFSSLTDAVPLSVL
Described as above.

For assay [4], the target named is T4, human SLITRK6 extracellular domain linked to his tag (human, UniProt Q9H5Y7 27-608).
T4 construct: extracellular domain; also called huSLITRK6; Hu SLITRK6; not shown: his tag
The assay is described as above.

The target of assay [5] is T1, human SLITRK6 on cells. Nature of the assay: flow cytometry on SW780 cells, PE-conjugated anti-human Fc.
Procedure: (§2) Specifically, cells were incubated with 50 μL of mAbs or ADCs in series dilutions in PBS containing 1% BSA at 4° C. for 30 min. The cells were washed twice with PBS containing 1% BSA, stained with PE-conjugated anti human Fc in PBS containing 1% BSA and then incubated at 4° C. for 20 min. After that the cells were washed twice with PBS and analyzed by a flow cytometer.
The target of assay [6] is T1, human SLITRK6 on cells. Nature of the assay: flow cytometry on KYSE-410 cells, PE-conjugated anti-human Fc.
Procedure: as §2
Assay [7] deals with T1, human SLITRK6 on cells. Nature of the assay: flow cytometry on CHP-212 cells, PE-conjugated anti-human Fc.
Procedure: as §2
Assay [8] has as its target T1, human SLITRK6 on cells. Nature of the assay: flow cytometry on KYSE-30 cells, PE-conjugated anti-human Fc.
Procedure: as §2
Assay [9] has as its target T1, human SLITRK6 on cells. Nature of the assay: flow cytometry on 293F-huSLITRK6 cells, PE-conjugated anti-human Fc.
Procedure: as §2
Assay [10] has as its target T1, human SLITRK6 on cells. Nature of the assay: flow cytometry on RT4 cells, PE-conjugated anti-human Fc. This is another data set of the same source.
Procedure: as §2
Assay [11] addresses T1, human SLITRK6 on cells. Nature of the assay: flow cytometry on SW780 cells, PE-conjugated anti-human Fc. The source holds these as a separate data set.
Procedure: as §1
For assay [12], the target named is T5, rat SLITRK6 (rat, UniProt D3ZP44 27-607).
T5 construct: extracellular domain; not shown: his tag
Nature of the assay: BLI, antigen on anti-his tips.

Assay [13] concerns the target T6, human SLITRK4 (human, UniProt Q8IW52 19-618, limits assumed).
T6 construct: The method text describes only the SLITRK6 ECD-his construct; also called Hu SLITRK4
T6 sequence (looked up): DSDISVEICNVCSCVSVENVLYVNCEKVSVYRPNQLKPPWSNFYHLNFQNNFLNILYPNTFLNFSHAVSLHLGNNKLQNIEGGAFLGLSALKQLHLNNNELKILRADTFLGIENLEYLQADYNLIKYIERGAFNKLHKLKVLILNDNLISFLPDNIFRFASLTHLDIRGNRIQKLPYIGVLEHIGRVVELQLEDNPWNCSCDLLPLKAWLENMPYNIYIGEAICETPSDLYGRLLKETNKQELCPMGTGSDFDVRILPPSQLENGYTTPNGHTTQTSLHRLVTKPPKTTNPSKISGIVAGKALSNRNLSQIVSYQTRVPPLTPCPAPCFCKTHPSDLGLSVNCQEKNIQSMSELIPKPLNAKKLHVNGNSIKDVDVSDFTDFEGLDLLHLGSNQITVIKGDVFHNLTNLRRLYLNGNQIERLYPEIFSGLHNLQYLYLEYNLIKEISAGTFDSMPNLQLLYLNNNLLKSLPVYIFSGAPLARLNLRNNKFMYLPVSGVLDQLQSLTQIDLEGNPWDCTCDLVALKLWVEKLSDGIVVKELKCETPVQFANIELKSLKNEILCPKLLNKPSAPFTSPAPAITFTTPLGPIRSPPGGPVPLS
Nature of the assay: BLI, antigen on anti-his tips.
Procedure: (§3) Binding kinetic of antibody-antigen was characterized by the bio-layer interferometry (BLI). 100 nM of SLITRK6′ extracellular domain linked to his tag was immobilized on anti-his biosensor tips (Fortebio). The sensors were rinsed with the buffer (50 mM Tris-AcOH, pH 6 or 7.5, 0.05% v/v surfactant P20) for 10 min to remove the unbound molecules, then dipped in the antibody solutions at different concentrations for 180 seconds and interspersed by a rinsing step in the buffer solution for 300 seconds. Binding affinity was calculated using ForteBio Data Acquisition 6.3 software (ForteBio) and was derived by fitting the kinetic data to a 1:1 Langmuir binding model utilizing global fitting algorithms. The dissociation or association equilibrium constant KD was calculated from the binding rate constants as KD=koff/kₒₙ (where koff and kₒₙ represent the dissociation kinetic constant and the association kinetic constant, respectively).

Assay [14] deals with T7, human SLITRK1 (human, UniProt Q96PX8 18-622, limits assumed).
T7 construct: The method text describes only the SLITRK6 ECD-his construct; also called Hu SLITRK1
T7 sequence (looked up): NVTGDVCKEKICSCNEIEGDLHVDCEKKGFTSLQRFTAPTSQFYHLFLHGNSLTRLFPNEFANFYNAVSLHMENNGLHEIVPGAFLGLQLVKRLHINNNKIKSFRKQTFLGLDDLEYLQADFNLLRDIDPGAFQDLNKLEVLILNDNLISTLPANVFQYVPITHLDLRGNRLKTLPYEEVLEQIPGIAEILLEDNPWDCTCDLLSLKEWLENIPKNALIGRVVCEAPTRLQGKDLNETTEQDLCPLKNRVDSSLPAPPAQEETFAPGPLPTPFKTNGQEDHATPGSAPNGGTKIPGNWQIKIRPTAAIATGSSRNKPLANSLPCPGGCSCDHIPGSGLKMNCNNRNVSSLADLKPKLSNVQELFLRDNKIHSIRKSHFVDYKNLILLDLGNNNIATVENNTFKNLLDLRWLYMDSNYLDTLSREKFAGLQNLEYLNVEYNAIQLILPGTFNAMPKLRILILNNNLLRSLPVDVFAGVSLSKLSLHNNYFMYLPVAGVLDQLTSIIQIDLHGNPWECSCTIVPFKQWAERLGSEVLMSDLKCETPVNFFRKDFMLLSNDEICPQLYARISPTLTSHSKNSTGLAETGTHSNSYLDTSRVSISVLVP
Nature of the assay: BLI, antigen on anti-his tips.
Procedure: as §3

Assay [15] addresses T1, human SLITRK6 on cells. Nature of the assay: flow cytometry on RT112/84 cells, PE-conjugated anti-human Fc.
Procedure: as §2

The text below walks through data of US20250296992A1 (Genmab, published 2025).

B1: hu1H2-03 with a LALA mutation (hu1H2-03-LALA) (antibody, V domains shown)
VH: EVQLVESGGGLVQPGGSLRLSCAASGFTFSDYGLHWVRQAPGKGLEWVSYISSGSSTVYFADTLKGRFTISRDNAKNSLYLQMNSLRAEDTAVYYCTRGTWYFDVWGRGTLVTVSS
VL: DIQMTQSPSSLSASVGDRVTITCRTSENIHSYLAWYQQKPGKSPQLLVYNAKTLADGVPSRFSGSGSGTDYTLTISSLQPEDFGTFYCQHFWTTSRTFGGGTKVEIK
For the molecule B1, the half-maximal effective concentration (EC50 (read off the curve)) in assay [1] is around 0.3 nM; in [5] it was around 0.3 nM; in assay [6], around 0.2 nM; in [7] it was around 0.2 nM; in assay [8] it was around 0.2 nM; in [9], around 0.9 nM. Besides, the “EC50 (read off the curve)” value in [10] was around 0.2 nM; in assay [11], around 0.3 nM; in assay [15] it was around 0.2 nM. Also, the dissociation constant Kd in [2] was determined as 0.25 nM; in [3] it was 0.59 nM; in assay [4], 0.14 nM. In addition, the binding result in [12], in assay [13] and in assay [14] was “no binding” throughout.
